Results taken from paper PMC8761896.

How the values were obtained:
BG505-SOSIP = BG505-SOSIP (UniProt Q2N0S6)
VRC01gl Fab with G107aL = assay: dynamic light scattering
[1] = biological target: VRC01gl Fab with comL ('VQ' insertion at 103aL and 103bL, L104VL, E105DL); assay: dynamic light scattering

Substance	Kd (BG505-SOSIP)	koff (BG505-SOSIP)	kon (BG505-SOSIP)	stoichiometry N (VRC01gl Fab with G107aL)	stoichiometry N [1]
3BNC131 Fab H:Q39L	21.2 nM	0.00095 s⁻¹	44800 M⁻¹ s⁻¹	–	–
N6 Fab L:H38Q	0.0781 nM	6.04e-06 s⁻¹	76800 M⁻¹ s⁻¹	–	–
VRC01gl Fab with G107aL	–	–	–	2	–
VRC01gl Fab with comL ('VQ' insertion at 103aL and 103bL, L104VL, E105DL)	–	–	–	–	4
